No end group written: not given here.
How the values were obtained:
VT028 antiserum [1] = assay: RIA standard curve, tracer iodinated PACAP(31-38); 16 pg cold standard; period in the CPM read as thousands mark
VT026 antiserum [2] = assay: RIA standard curve, tracer iodinated PACAP(31-38); 128 pg cold standard
VT028 antiserum [3] = assay: as above
VT028 antiserum [4] = assay: RIA standard curve, tracer iodinated PACAP(31-38); 255 pg cold standard; period in the CPM read as thousands mark
VT026 antiserum [5] = assay: RIA standard curve, tracer iodinated PACAP(31-38); 2,040 pg cold standard
VT027 antiserum [6] = assay: as above
VT027 antiserum [7] = assay: RIA standard curve, tracer iodinated PACAP(31-38); 125 pg cold standard (so in the source)
VT028 antiserum [8] = assay: RIA standard curve, tracer iodinated PACAP(31-38); 32 pg cold standard; period in the CPM read as thousands mark
VT028 antiserum [9] = assay: RIA standard curve, tracer iodinated PACAP(31-38); 2 pg cold standard; period in the CPM read as thousands mark
VT026 antiserum [10] = assay: RIA standard curve, tracer iodinated PACAP(31-38); 32 pg cold standard
VT028 antiserum [11] = assay: as above
VT027 antiserum [12] = assay: as above
VT028 antiserum [13] = assay: RIA standard curve, tracer iodinated PACAP(31-38); 1 pg cold standard; period in the CPM read as thousands mark
VT028 antiserum [14] = assay: RIA standard curve, tracer iodinated PACAP(31-38); 54 pg cold standard (so in the source); period in the CPM read as thousands mark
VT026 antiserum [15] = assay: RIA standard curve, tracer iodinated PACAP(31-38); 84 pg cold standard (so in the source)
VT027 antiserum [16] = assay: as above
VT026 antiserum [17] = assay: RIA standard curve, tracer iodinated PACAP(31-38); 5 pg cold standard (so in the source)
VT026 antiserum [18] = assay: competition RIA, tracer iodinated PACAP(31-38); high end tied to VT026 by Table 5 (20.3 fmol)
VT028 antiserum [19] = assay: RIA standard curve, tracer iodinated PACAP(31-38); 8 pg cold standard
VT026 antiserum [20] = assay: RIA standard curve, tracer iodinated PACAP(31-38); 18 pg cold standard (so in the source)
VT027 antiserum [21] = assay: as above
VT027 antiserum [22] = assay: competition RIA, tracer iodinated PACAP(31-38); low end tied to VT027 by Table 6 (41 pg)
VT026 antiserum [23] = assay: competition RIA, antiserum 1:100K, tracer iodinated PACAP(31-38)
VT028 antiserum [24] = assay: RIA standard curve, tracer iodinated PACAP(31-38); 1.020 pg cold standard as printed (read as 1,020)
VT028 antiserum [25] = assay: RIA standard curve, tracer iodinated PACAP(31-38); 54 pg cold standard (so in the source)
VT028 antiserum [26] = assay: RIA standard curve, tracer iodinated PACAP(31-38); 4 pg cold standard; period in the CPM read as thousands mark
VT028 antiserum [27] = assay: competition RIA, antiserum 1:200K, tracer iodinated PACAP(31-38)
VT027 antiserum [28] = assay: as above
VT027 antiserum [29] = assay: RIA standard curve, tracer iodinated PACAP(31-38); 3 pg cold standard (so in the source)
[30] = target: PACAP38 RIA antiserum (Peninsula Laboratories); assay: competition RIA, double antibody immunoprecipitation, antiserum 1:30,000
VT026 antiserum [31] = assay: RIA standard curve, tracer iodinated PACAP(31-38); 4 pg cold standard
VT028 antiserum [32] = assay: as above
VT027 antiserum [33] = assay: as above
VT028 antiserum [34] = assay: RIA standard curve, tracer iodinated PACAP(31-38); 16 pg cold standard
VT026 antiserum [35] = assay: RIA standard curve, tracer iodinated PACAP(31-38); 255 pg cold standard
VT028 antiserum [36] = assay: as above
VT027 antiserum [37] = assay: as above
VT026 antiserum [38] = assay: RIA standard curve, tracer iodinated PACAP(31-38); 2 pg cold standard
VT028 antiserum [39] = assay: as above
VT027 antiserum [40] = assay: as above
VT028 antiserum [41] = assay: RIA standard curve, tracer iodinated PACAP(31-38); 1.020 pg cold standard as printed (read as 1,020); period in the CPM read as thousands mark
VT028 antiserum [42] = assay: RIA standard curve, tracer iodinated PACAP(31-38); 128 pg cold standard; period in the CPM read as thousands mark
VT028 antiserum [43] = assay: RIA standard curve, tracer iodinated PACAP(31-38); 2.040 pg cold standard as printed (read as 2,040)
VT026 antiserum [44] = assay: RIA standard curve, tracer iodinated PACAP(31-38); 1 pg cold standard
VT028 antiserum [45] = assay: as above
VT027 antiserum [46] = assay: as above
VT028 antiserum [47] = assay: RIA standard curve, tracer iodinated PACAP(31-38); 8 pg cold standard; period in the CPM read as thousands mark
VT026 antiserum [48] = assay: RIA standard curve, tracer iodinated PACAP(31-38); 1,020 pg cold standard
VT027 antiserum [49] = assay: as above
VT028 antiserum [50] = assay: RIA standard curve, tracer iodinated PACAP(31-38); 510 pg cold standard; period in the CPM read as thousands mark
VT026 antiserum [51] = assay: RIA standard curve, tracer iodinated PACAP(31-38); 510 pg cold standard
VT028 antiserum [52] = assay: as above
VT027 antiserum [53] = assay: as above

CPM (VT028 antiserum [1]): 10100 cpm
BINDING (VT026 antiserum [2]): 0.427
CPM (VT026 antiserum [2]): 2800 cpm
BINDING (VT028 antiserum [3]): 0.367
CPM (VT028 antiserum [4]): 2760 cpm
BINDING (VT026 antiserum [5]): 0.0479
CPM (VT026 antiserum [5]): 515 cpm
BINDING (VT027 antiserum [6]): 0.0302
CPM (VT027 antiserum [6]): 490 cpm
BINDING (VT027 antiserum [7]): 0.245
CPM (VT027 antiserum [7]): 2190 cpm
CPM (VT028 antiserum [8]): 8840 cpm
CPM (VT028 antiserum [9]): 11200 cpm
BINDING (VT026 antiserum [10]): 0.728
CPM (VT026 antiserum [10]): 4250 cpm
BINDING (VT028 antiserum [11]): 0.77
BINDING (VT027 antiserum [12]): 0.584
CPM (VT027 antiserum [12]): 4860 cpm
CPM (VT028 antiserum [13]): 11300 cpm
CPM (VT028 antiserum [14]): 7010 cpm
BINDING (VT026 antiserum [15]): 0.502
CPM (VT026 antiserum [15]): 3450 cpm
BINDING (VT027 antiserum [16]): 0.411
CPM (VT027 antiserum [16]): 3500 cpm
BINDING (VT026 antiserum [17]): 0.945
CPM (VT026 antiserum [17]): 5450 cpm
assay midpoint (VT026 antiserum [18]): 20 fmol
BINDING (VT028 antiserum [19]): 0.914
BINDING (VT026 antiserum [20]): 0.859
CPM (VT026 antiserum [20]): 4980 cpm
BINDING (VT027 antiserum [21]): 0.715
CPM (VT027 antiserum [21]): 5900 cpm
assay midpoint (VT027 antiserum [22]): 9 fmol
DETECTION LIMIT (VT026 antiserum [23]): 5.38 pg
MIDPOINT [fmol] (VT026 antiserum [23]): 20.3 fmol
MIDPOINT [pg] (VT026 antiserum [23]): 92 pg
BINDING (VT028 antiserum [24]): 0.0685
BINDING (VT028 antiserum [25]): 0.606
CPM (VT028 antiserum [26]): 10800 cpm
DETECTION LIMIT (VT028 antiserum [27]): 6.69 pg
MIDPOINT [fmol] (VT028 antiserum [27]): 19.3 fmol
MIDPOINT [pg] (VT028 antiserum [27]): 67 pg
DETECTION LIMIT (VT027 antiserum [28]): 2.19 pg
MIDPOINT [fmol] (VT027 antiserum [28]): 92 fmol
MIDPOINT [pg] (VT027 antiserum [28]): 41 pg
BINDING (VT027 antiserum [29]): 0.835
CPM (VT027 antiserum [29]): 6850 cpm
assay midpoint [30]: 3.5 fmol
BINDING (VT026 antiserum [31]): 0.957
CPM (VT026 antiserum [31]): 5510 cpm
BINDING (VT028 antiserum [32]): 0.946
BINDING (VT027 antiserum [33]): 0.589
CPM (VT027 antiserum [33]): 7280 cpm
BINDING (VT028 antiserum [34]): 0.88
BINDING (VT026 antiserum [35]): 0.271
CPM (VT026 antiserum [35]): 1740 cpm
BINDING (VT028 antiserum [36]): 0.227
BINDING (VT027 antiserum [37]): 0.147
CPM (VT027 antiserum [37]): 1140 cpm
BINDING (VT026 antiserum [38]): 0.961
CPM (VT026 antiserum [38]): 5540 cpm
BINDING (VT028 antiserum [39]): 0.981
BINDING (VT027 antiserum [40]): 0.931
CPM (VT027 antiserum [40]): 7620 cpm
CPM (VT028 antiserum [41]): 1020 cpm
CPM (VT028 antiserum [42]): 4350 cpm
BINDING (VT028 antiserum [43]): 0.0389
CPM (VT028 antiserum [43]): 684 cpm
BINDING (VT026 antiserum [44]): 0.973
CPM (VT026 antiserum [44]): 5600 cpm
BINDING (VT028 antiserum [45]): 0.993
BINDING (VT027 antiserum [46]): 0.978
CPM (VT027 antiserum [46]): 7960 cpm
CPM (VT028 antiserum [47]): 10400 cpm
BINDING (VT026 antiserum [48]): 0.0598
CPM (VT026 antiserum [48]): 800 cpm
BINDING (VT027 antiserum [49]): 0.0512
CPM (VT027 antiserum [49]): 858 cpm
CPM (VT028 antiserum [50]): 1730 cpm
BINDING (VT026 antiserum [51]): 0.142
CPM (VT026 antiserum [51]): 1030 cpm
BINDING (VT028 antiserum [52]): 0.133
BINDING (VT027 antiserum [53]): 0.0789
CPM (VT027 antiserum [53]): 875 cpm
Binder: HSDGIFTDSYSRYRKQMAVKKYLAAVLGKRYKQRVKNK (peptide, UniProt P18509 132-169, looked up, not fully specified; ends and bridges not checked) [PACAP38]

Reference: patent US20150309050A1
